Key:
HeLa Kyoto [1] = assay: solubility change mitosis vs G1/S (difference of NP-40 vs SDS log2 ratios) (log2 ratio difference); higher = more soluble in mitosis
HeLa Kyoto [2] = assay: solubility in G1/S (NP-40 vs SDS abundance) (log2 ratio); higher = more soluble; details: cell cycle stage: G1/S
HeLa Kyoto [3] = assay: thermal stability score vs G1/S (z-score of summed log2 fold changes over temperatures); higher = more thermally stable than in G1/S
HeLa Kyoto [4] = assay: melting temperature (median over replicates), in situ; higher = more thermally stable
[5] = cell cycle stage: early G1 (4.5 h after nocodazole release)
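Wherever melting temperature (median over replicates), in situ is given: HeLa Kyoto cells synchronized by double thymidine or nocodazole block, proteins quantified by TMT10plex mass spectrometry, three independent biological replicates.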
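Wherever solubility change mitosis vs G1/S (difference of NP-40 vs SDS log2 ratios) is given: synchronized HeLa Kyoto cells (double thymidine block for G1/S, nocodazole release for mitosis), protein amounts in NP-40 versus SDS lysates quantified by mass spectrometry, three biological replicates.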
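Wherever solubility in G1/S (NP-40 vs SDS abundance) is given: HeLa Kyoto cells arrested at G1/S by double thymidine block, proteins quantified by TMT10plex mass spectrometry in mild NP-40 versus SDS extracts, three biological replicates.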
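Wherever thermal stability score vs G1/S (z-score of summed log2 fold changes over temperatures) is given: synchronized HeLa Kyoto cells, proteins quantified by TMT10plex mass spectrometry, three biological replicates, mitosis taken 0.5 h after nocodazole release, G1/S directly after double thymidine block.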

RBPJ, sequence (chain, as listed by the source): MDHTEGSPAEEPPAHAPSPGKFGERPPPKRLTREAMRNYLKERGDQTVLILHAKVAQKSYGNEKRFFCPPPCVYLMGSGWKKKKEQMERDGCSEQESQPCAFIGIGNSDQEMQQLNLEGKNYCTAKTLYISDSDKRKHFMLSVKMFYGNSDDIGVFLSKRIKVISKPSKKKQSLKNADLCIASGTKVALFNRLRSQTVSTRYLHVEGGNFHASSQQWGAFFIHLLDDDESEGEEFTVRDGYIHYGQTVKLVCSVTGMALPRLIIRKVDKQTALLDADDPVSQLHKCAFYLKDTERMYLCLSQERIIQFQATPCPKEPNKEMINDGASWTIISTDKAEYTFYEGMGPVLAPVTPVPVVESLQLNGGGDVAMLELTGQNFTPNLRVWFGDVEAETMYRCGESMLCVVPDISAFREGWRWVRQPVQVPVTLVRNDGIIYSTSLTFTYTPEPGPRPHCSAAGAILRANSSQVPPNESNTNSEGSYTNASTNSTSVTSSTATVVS
STRIP1, sequence (chain, as listed by the source): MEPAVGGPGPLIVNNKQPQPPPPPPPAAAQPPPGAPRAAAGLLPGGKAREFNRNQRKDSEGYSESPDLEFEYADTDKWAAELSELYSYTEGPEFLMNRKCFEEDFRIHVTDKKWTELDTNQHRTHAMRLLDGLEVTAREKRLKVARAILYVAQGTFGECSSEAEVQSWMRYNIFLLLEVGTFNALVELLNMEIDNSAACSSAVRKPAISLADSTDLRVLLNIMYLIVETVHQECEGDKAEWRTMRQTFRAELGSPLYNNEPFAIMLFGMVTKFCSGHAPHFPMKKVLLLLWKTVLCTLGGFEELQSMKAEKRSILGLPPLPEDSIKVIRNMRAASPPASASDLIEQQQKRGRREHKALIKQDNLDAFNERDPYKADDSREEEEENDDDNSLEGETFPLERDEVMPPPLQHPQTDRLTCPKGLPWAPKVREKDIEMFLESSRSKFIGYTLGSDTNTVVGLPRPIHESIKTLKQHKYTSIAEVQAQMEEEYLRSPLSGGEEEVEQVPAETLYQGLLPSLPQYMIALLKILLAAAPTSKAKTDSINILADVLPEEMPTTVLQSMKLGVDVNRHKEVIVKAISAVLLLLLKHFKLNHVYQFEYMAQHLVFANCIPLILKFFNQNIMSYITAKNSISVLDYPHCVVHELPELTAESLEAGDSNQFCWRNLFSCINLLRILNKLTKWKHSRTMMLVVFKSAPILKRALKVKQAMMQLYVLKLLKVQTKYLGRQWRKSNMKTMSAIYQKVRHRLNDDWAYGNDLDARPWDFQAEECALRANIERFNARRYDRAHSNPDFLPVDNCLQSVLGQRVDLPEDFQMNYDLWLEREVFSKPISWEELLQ

Substance | solubility change mitosis (log2) (HeLa Kyoto [1]) | solubility in G1/S (log2) (HeLa Kyoto [2]) | thermal stability score (HeLa Kyoto [3]; [5]) | thermal stability score (HeLa Kyoto [3]; cell cycle stage: mitosis) | melting temperature (HeLa Kyoto [4]; cell cycle stage: G1/S) [°C] | melting temperature (HeLa Kyoto [4]; cell cycle stage: mitosis) [°C]
MLSLDFLDDVRRMNKRQLYYQVLNFGMIVSSALMIWKGLMVITGSESPIVVVLSGSMEPAFHRGDLLFLTNRVEDPIRVGEIVVFRIEGREIPIVHRVLKIHEKQNGHIKFLTKGDNNAVDDRGLYKQGQHWLEKKDVVGRARGFVPYIGIVTILMNDYPKFKYAVLFLLGLFVLVHRE [SEC11A] | -0.117 | -0.21 | 9.24 | 7.47 | 53.2 | 52.3
STRIP1 | -0.214 | 0.0221 | 0.575 | 0.412 | 51.3 | 49.6
MALSAQQIPRWFNSVKLRSLINAAQLTKRFTRPARTLLHGFSAQPQISSDNCFLQWGFKTYRTSSLWNSSQSTSSSSQENNSAQSSLLPSMNEQSQKTQNISSFDSELFLEELDELPPLSPMQPISEEEAIQIIADPPLPPASFTLRDYVDHSETLQKLVLLGVDLSKIEKHPEAANLLLRLDFEKDIKQMLLFLKDVGIEDNQLGAFLTKNHAIFSEDLENLKTRVAYLHSKNFSKADVAQMVRKAPFLLNFSVERLDNRLGFFQKELELSVKKTRDLVVRLPRLLTGSLEPVKENMKVYRLELGFKHNEIQHMITRIPKMLTANKMKLTETFDFVHNVMSIPHHIIVKFPQVFNTRLFKVKERHLFLTYLGRAQYDPAKPNYISLDKLVSIPDEIFCEEIAKASVQDFEKFLKTL [MTERF3] | -0.167 | 0.238 | -0.741 | 0.517 | 49.7 | 50.3
MGNRGMEELIPLVNKLQDAFSSIGQSCHLDLPQIAVVGGQSAGKSSVLENFVGRDFLPRGSGIVTRRPLILQLIFSKTEHAEFLHCKSKKFTDFDEVRQEIEAETDRVTGTNKGISPVPINLRVYSPHVLNLTLIDLPGITKVPVGDQPPDIEYQIKDMILQFISRESSLILAVTPANMDLANSDALKLAKEVDPQGLRTIGVITKLDLMDEGTDARDVLENKLLPLRRGYIGVVNRSQKDIEGKKDIRAALAAERKFFLSHPAYRHMADRMGTPHLQKTLNQQLTNHIRESLPALRSKLQSQLLSLEKEVEEYKNFRPDDPTRKTKALLQMVQQFGVDFEKRIEGSGDQVDTLELSGGARINRIFHERFPFELVKMEFDEKDLRREISYAIKNIHGVRTGLFTPDLAFEAIVKKQVVKLKEPCLKCVDLVIQELINTVRQCTSKLSSYPRLREETERIVTTYIREREGRTKDQILLLIDIEQSYINTNHEDFIGFANAQQRSTQLNKKRAIPNQGEILVIRRGWLTINNISLMKGGSKEYWFVLTAESLSWYKDEEEKEKKYMLPLDNLKIRDVEKGFMSNKHVFAIFNTEQRNVYKDLRQIELACDSQEDVDSWKASFLRAGVYPEKDQAENEDGAQENTFSMDPQLERQVETIRNLVDSYVAIINKSIRDLMPKTIMHLMINNTKAFIHHELLAYLYSSADQSSLMEESADQAQRRDDMLRMYHALKEALNIIGDISTSTVSTPVPPPVDDTWLQSASSHSPTPQRRPVSSIHPPGRPPAVRGPTPGPPLIPVPVGAAASFSAPPIPSRPGPQSVFANSDLFPAPPQIPSRPVRIPPGIPPGVPSRRPPAAPSRPTIIRPAEPSLLD [DNM2] | -0.144 | 0.212 | 1.01 | 1.14 | 50.5 | 50
MAFRQALQLAACGLAGGSAAVLFSAVAVGKPRAGGDAEPRPAEPPAWAGGARPGPGVWDPNWDRREPLSLINVRKRNVESGEEELASKLDHYKAKATRHIFLIRHSQYHVDGSLEKDRTLTPLGREQAELTGLRLASLGLKFNKIVHSSMTRAIETTDIISRHLPGVCKVSTDLLREGAPIEPDPPVSHWKPEAVQYYEDGARIEAAFRNYIHRADARQEEDSYEIFICHANVIRYIVCRALQFPPEGWLRLSLNNGSITHLVIRPNGRVALRTLGDTGFMPPDKITRS [PGAM5] | 0.121 | -0.0731 | 1.94 | -3.72 | 52.8 | 52.2
MSEQSICQARASVMVYDDTSKKWVPIKPGQQGFSRINIYHNTASNTFRVVGVKLQDQQVVINYSIVKGLKYNQATPTFHQWRDARQVYGLNFASKEEATTFSNAMLFALNIMNSQEGGPSSQRQVQNGPSPDEMDIQRRQVMEQHQQQRQESLERRTSATGPILPPGHPSSAASAPVSCSGPPPPPPPPVPPPPTGATPPPPPPLPAGGAQGSSHDESSMSGLAAAIAGAKLRRVQRPEDASGGSSPSGTSKSDANRASSGGGGGGLMEEMNKLLAKRRKAASQSDKPAEKKEDESQMEDPSTSPSPGTRAASQPPNSSEAGRKPWERSNSVEKPVSSILSRTPSVAKSPEAKSPLQSQPHSRMKPAGSVNDMALDAFDLDRMKQEILEEVVRELHKVKEEIIDAIRQELSGISTT [EVL] | -0.143 | 0.231 | -0.133 | -0.273 | 50 | –
RBPJ | 0.039 | -0.198 | 0.21 | -0.976 | 54.8 | 54.4
MLGMIKNSLFGSVETWPWQVLSKGDKEEVAYEERACEGGKFATVEVTDKPVDEALREAMPKVAKYAGGTNDKGIGMGMTVPISFAVFPNEDGSLQKKLKVWFRIPNQFQSDPPAPSDKSVKIEEREGITVYSMQFGGYAKEADYVAQATRLRAALEGTATYRGDIYFCTGYDPPMKPYGRRNEIWLLKT [HEBP1] | 0.0399 | 0.27 | -1.08 | -2.04 | 52.9 | 53.3
MQGARAPRDQGRSPGRMSALGRSSVILLTYVLAATELTCLFMQFSIVPYLSRKLGLDSIAFGYLQTTFGVLQLLGGPVFGRFADQRGARAALTLSFLAALALYLLLAAASSPALPGVYLLFASRLPGALMHTLPAAQMVITDLSAPEERPAALGRLGLCFGVGVILGSLLGGTLVSAYGIQCPAILAALATLLGAVLSFTCIPASTKGAKTDAQAPLPGGPRASVFDLKAIASLLRLPDVPRIFLVKVASNCPTGLFMVMFSIISMDFFQLEAAQAGYLMSFFGLLQMVTQGLVIGQLSSHFSEEVLLRASVLVFIVVGLAMAWMSSVFHFCLLVPGLVFSLCTLNVVTDSMLIKAVSTSDTGTMLGLCASVQPLLRTLGPTVGGLLYRSFGVPVFGHVQVAINTLVLLVLWRKPMPQRKDKVR [SLC22A18] | -0.181 | -0.019 | 0.106 | -0.446 | 54.2 | –
ARID1B | 0.0332 | -0.143 | 0.573 | 1.11 | 48.8 | 50.2
MAAAAARWNHVWVGTETGILKGVNLQRKQAANFTAGGQPRREEAVSALCWGTGGETQMLVGCADRTVKHFSTEDGIFQGQRHCPGGEGMFRGLAQADGTLITCVDSGILRVWHDKDKDTSSDPLLELRVGPGVCRMRQDPAHPHVVATGGKENALKIWDLQGSEEPVFRAKNVRNDWLDLRVPIWDQDIQFLPGSQKLVTCTGYHQVRVYDPASPQRRPVLETTYGEYPLTAMTLTPGGNSVIVGNTHGQLAEIDLRQGRLLGCLKGLAGSVRGLQCHPSKPLLASCGLDRVLRIHRIQNPRGLEHKVYLKSQLNCLLLSGRDNWEDEPQEPQEPNKVPLEDTETDELWASLEAAAKRKLSGLEQPQGALQTRRRKKKRPGSTSP [WDR74] | 0.631 | -0.848 | -0.813 | -1.48 | – | 52
MARSPGRAYALLLLLICFNVGSGLHLQVLSTRNENKLLPKHPHLVRQKRAWITAPVALREGEDLSKKNPIAKIHSDLAEERGLKITYKYTGKGITEPPFGIFVFNKDTGELNVTSILDREETPFFLLTGYALDARGNNVEKPLELRIKVLDINDNEPVFTQDVFVGSVEELSAAHTLVMKINATDADEPNTLNSKISYRIVSLEPAYPPVFYLNKDTGEIYTTSVTLDREEHSSYTLTVEARDGNGEVTDKPVKQAQVQIRILDVNDNIPVVENKVLEGMVEENQVNVEVTRIKVFDADEIGSDNWLANFTFASGNEGGYFHIETDAQTNEGIVTLIKEVDYEEMKNLDFSVIVANKAAFHKSIRSKYKPTPIPIKVKVKNVKEGIHFKSSVISIYVSESMDRSSKGQIIGNFQAFDEDTGLPAHARYVKLEDRDNWISVDSVTSEIKLAKLPDFESRYVQNGTYTVKIVAISEDYPRKTITGTVLINVEDINDNCPTLIEPVQTICHDAEYVNVTAEDLDGHPNSGPFSFSVIDKPPGMAEKWKIARQESTSVLLQQSEKKLGRSEIQFLISDNQGFSCPEKQVLTLTVCECLHGSGCREAQHDSYVGLGPAAIALMILAFLLLLLVPLLLLMCHCGKGAKGFTPIPGTIEMLHPWNNEGAPPEDKVVPSFLPVDQGGSLVGRNGVGGMAKEATMKGSSSASIVKGQHEMSEMDGRWEEHRSLLSGRATQFTGATGAIMTTETTKTARATGASRDMAGAQAAAVALNEEFLRNYFTDKAASYTEEDENHTAKDCLLVYSQEETESLNASIGCCSFIEGELDDRFLDDLGLKFKTLAEVCLGQKIDINKEIEQRQKPATETSMNTASHSLCEQTMVNSENTYSSGSSFPVPKSLQEANAEKVTQEIVTERSVSSRQAQKVATPLPDPMASRNVIATETSYVTGSTMPPTTVILGPSQPQSLIVTERVYAPASTLVDQPYANEGTVVVTERVIQPHGGGSNPLEGTQHLQDVPYVMVRERESFLAPSSGVQPTLAMPNIAVGQNVTVTERVLAPASTLQSSYQIPTENSMTARNTTVSGAGVPGPLPDFGLEESGHSNSTITTSSTRVTKHSTVQHSYS [DSG2] | -0.164 | -0.504 | -1.15 | -1.27 | 55.1 | 56
MFGTLLLYCFFLATVPALAETGGERQLSPEKSEIWGPGLKADVVLPARYFYIQAVDTSGNKFTSSPGEKVFQVKVSAPEEQFTRVGVQVLDRKDGSFIVRYRMYASYKNLKVEIKFQGQHVAKSPYILKGPVYHENCDCPLQDSAAWLREMNCPETIAQIQRDLAHFPAVDPEKIAVEIPKRFGQRQSLCHYTLKDNKVYIKTHGEHVGFRIFMDAILLSLTRKVKMPDVELFVNLGDWPLEKKKSNSNIHPIFSWCGSTDSKDIVMPTYDLTDSVLETMGRVSLDMMSVQANTGPPWESKNSTAVWRGRDSRKERLELVKLSRKHPELIDAAFTNFFFFKHDENLYGPIVKHISFFDFFKHKYQINIDGTVAAYRLPYLLVGDSVVLKQDSIYYEHFYNELQPWKHYIPVKSNLSDLLEKLKWAKDHDEEAKKIAKAGQEFARNNLMGDDIFCYYFKLFQEYANLQVSEPQIREGMKRVEPQTEDDLFPCTCHRKKTKDEL [KDELC1] | -0.102 | 0.0317 | 2.25 | 2.83 | 53.5 | 54
MENMAEEELLPLEKEEVEVAQVQVPTPARDSAGVPAPAPDSALDSAPTPASAPAPAPALAQAPALSPSLASAPEEAKSKRHISIQRQLADLENLAFVTDGNFDSASSLNSDNLDAGNRQACPLCPKEKFRACNSHKLRRHLQNLHWKVSVEFEGYRMCICHLPCRPVKPNIIGEQITSKMGAHYHCIICSATITRRTDMLGHVRRHMNKGETKSSYIAASTAKPPKEILKEADTDVQVCPNYSIPQKTDSYFNPKMKLNRQLIFCTLAALAEERKPLECLDAFGATGIMGLQWAKHLGNAVKVTINDLNENSVTLIQENCHLNKLKVVVDSKEKEKSDDILEEGEKNLGNIKVTKMDANVLMHLRSFDFIHLDPFGTSVNYLDSAFRNIRNLGIVSVTSTDISSLYAKAQHVARRHYGCNIVRTEYYKELAARIVVAAVARAAARCNKGIEVLFAVALEHFVLVVVRVLRGPTSADETAKKIQYLIHCQWCEERIFQKDGNMVEENPYRQLPCNCHGSMPGKTAIELGPLWSSSLFNTGFLKRMLFESLHHGLDDIQTLIKTLIFESECTPQSQFSIHASSNVNKQEENGVFIKTTDDTTTDNYIAQGKRKSNEMITNLGKKQKTDVSTEHPPFYYNIHRHSIKGMNMPKLKKFLCYLSQAGFRVSRTHFDPMGVRTDAPLMQFKSILLKYSTPTYTGGQSESHVQSASEDTVTERVEMSVNDKAEASGCRRW [TRMT1L] | 0.324 | -0.537 | -0.774 | -3 | 51.8 | 50.9
RAB1A | -0.093 | 0.166 | -1.51 | -4.28 | 60.3 | 60.6

— the supplement of paper PMC5998384
